From publication PMC7928716

What was measured:
[1] = biological target: GABARAP ATG8 (2-115) (human) (UniProt O95166); test: fluorescence polarisation
[2] = biological target: MAP1LC3A ATG8 (2–119) (human) (UniProt Q9H492); test: fluorescence polarisation
[3] = biological target: MAP1LC3B ATG8 (2–119) (human) (UniProt Q9GZQ8); test: fluorescence polarisation
[4] = biological target: MAP1LC3C ATG8 (2–125) (human) (UniProt Q9BXW4); test: fluorescence polarisation
[5] = biological target: FITC-labeled ACE2(775–790) peptide, pSer783 (human); test: fluorescence polarisation
[6] = biological target: FITC-labeled ACE2(775–790) peptide, pTyr781 (human); test: fluorescence polarisation
[7] = biological target: FITC-labeled ACE2(775–790) peptide, unphosphorylated (human); test: fluorescence polarisation
AP2 μ2 160-435 [8] = biological target: AP2 μ2 160-435 (UniProt Q96CW1); test: fluorescence polarisation
[9] = biological target: […]2 ATG8 (2–115) (human) (UniProt P60520); test: fluorescence polarisation
[…]2 ATG8 (2–115) (human), sequence (P60520 2-115): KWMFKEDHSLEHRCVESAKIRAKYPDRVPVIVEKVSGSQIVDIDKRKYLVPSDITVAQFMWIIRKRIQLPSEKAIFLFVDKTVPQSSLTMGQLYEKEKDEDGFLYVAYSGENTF

AP2 μ2 160-435 [10] = biological target: AP2 μ2 160-435 (UniProt Q96CW1); test: FP displacement of FITC-ATG9A probe; conditions: reference: unphosphorylated peptide; sites Y781

GABARAP ATG8 (2-115) (human), sequence (O95166 2-115): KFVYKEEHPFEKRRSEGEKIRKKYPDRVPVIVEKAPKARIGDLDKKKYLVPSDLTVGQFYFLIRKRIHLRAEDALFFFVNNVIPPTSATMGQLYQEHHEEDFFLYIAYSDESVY
MAP1LC3C ATG8 (2–125) (human), sequence (Q9BXW4 2-125): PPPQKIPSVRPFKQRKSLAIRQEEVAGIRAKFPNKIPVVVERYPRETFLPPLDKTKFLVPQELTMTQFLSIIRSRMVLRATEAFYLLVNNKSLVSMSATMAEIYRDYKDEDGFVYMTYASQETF

Row | Substance | Ki [2] [µM] | Ki [3] [µM] | Ki [4] [µM] | Kd [5] [µM] | Kd [6] [µM] | Kd [7] [µM] | other results
1 | integrin β3 tail peptide, pThr779/pTyr785 | 8.5 | 15 | 8 |  |  |  | Ki [1]: 17.8 µM
2 | MAP1LC3A ATG8 (2–119) (from UniProt Q9H492 2-119) (domain or fragment) |  |  |  | > 100 | > 100 | > 100 | 
3 | AP2 μ2 (160–435) (from UniProt Q96CW1 160-435) (domain or fragment) |  |  |  | 30 | > 100 | 60 | 
4 | GABARAP ATG8 (2-115) (from UniProt O95166 2-115) (domain or fragment) |  |  |  | > 100 | > 100 | > 100 | 
5 | ACE2(775–790) peptide, unphosphorylated, unlabeled (displacing peptide) |  |  |  |  |  |  | Ki (AP2 μ2 160-435 [8]): 101 µM
6 | integrin β3 tail peptide, pSer778 | 29.4 | > 100 | 16.1 |  |  |  | 
7 | integrin β3 tail peptide, pThr777 | > 100 | > 100 | 73 |  |  |  | Ki [1]: 47 µM
8 | integrin β3 tail peptide, pThr779 | > 100 | > 100 | 82 |  |  |  | Ki [9]: > 100 µM
9 | NCK1 SH2 (275–377) (from UniProt P16333 275-377) (domain or fragment) |  |  |  | > 100 | > 100 | > 100 | 
10 | ACE2 775-790 (from UniProt Q9BYF1) pTyr781 peptide |  |  |  |  |  |  | Ki (AP2 μ2 160-435 [10]): lost; reference 101 ± 5
11 | integrin β3 tail peptide, pTyr785 | 38 | 81 | 83 |  |  |  | Ki [9]: 89 µM
12 | FYN SH2 (142–251) (from UniProt P06241 142-251) (domain or fragment) |  |  |  | > 100 |  | > 100 | 
13 | integrin β3 tail peptide, unphosphorylated | > 100 | > 100 | > 100 |  |  |  | Ki [1]: > 100 µM; Ki [9]: > 100 µM
